# B1: Activating molecule in BECN1-regulated autophagy protein 1 (Homo sapiens), Q9C0C7-3 (parent)
# chain: MKVVPEKNAVRILWGRERGARAMGAQRLLQELVEDKTRWMKWEGKRVELPDSPRSTFLLAFSPDRTLLASTHVNHNIYITEVKTGKCVHSLIGHRRTPWCVTFHPTISGLIASGCLDGEVRIWDLHGGSESWFTDSNNAIASLAFHPTAQLLLIATANEIHFWDWSRREPFAVVKTASEMERVRLVRFDPLGHYLLTAIVNPSNQQGDDEPEIPIDGTELSHYRQRALLQSQPVRRTPLLHNFLHMLSSRSSGIQVGEQSTVQDSATPSPPPPPPQPSTERPRTSAYIRLRQRVSYPTAECCQHLGILCLCSRCSGTRVPSLLPHQDSVPPASARATTPSFSFVQTEPFHPPEQASSTQQDQGLLNRPSAFSTVQSSTAGNTLRNLSLGPTRRSLGGPLSSHPSRYHREIAPGLTGSEWTRTVLSLNSRSEAESMPPPRTSASSVSLLSVLRQQEGGSQASVYTSATEGRGFPASGLATESDGGNGSSQNNSGSIRHELQCDLRRFFLEYDRLQELDQSLSGEAPQTQQAQEMLNNNIESERPGPSHQPTPHSSENNSNLSRGHLNRCRACHNLLTFNNDTLRWERTTPNYSSGEASSSWQVPSSFESVPSSGSQLPPLERTEGQTPSSSRLELSSSASPQEERTVGVAFNQETGHWERIYTQSSRSGTVSQEALHQDMPEESSEEDSLRRLSPAAYYAQRMIQYLSRRDSIRQRSMRYQQNRLRSSTSSSSSDNQGPSVEGTDLEFEDFEDNGDRSRHRAPRNARMSAPSLGRFVPRRFLLPEYLPYAGIFHERGQPGLATHSSVNRVLAGAVIGDGQSAVASNIANTTYRLQWWDFTKFDLPEISNASVNVLVQNCKIYNDASCDISADGQLLAAFIPSSQRGFPDEGILAVYSLAPHNLGEMLYTKRFGPNAISVSLSPMGRYVMVGLASRRILLHPSTEHMVAQVFRLQQAHGGETSMRRVFNVLYPMPADQRRHVSINSARWLPEPGLGLAYGTNKGDLVICRPEALNSGVEYYWDQLNETVFTVHSNSRSSERPGTSRATWRTDRDMGLMNAIGLQPRNPATSVTSQGTQTLALQLQNAETQTEREVPEPGTAASGPGEGEGSEYGASGEDALSRIQRLMAEGGMTAVVQREQSTTMASMGGFGNNIIVSHRIHRSSQTGTEPGAAHTSSPQPSTSRGLLPEAGQLAERGLSPRTASWDQPGTPGREPTQPTLPSSSPVPIPVSLPSAEGPTLHCELTNNNHLLDGGSSRGDAAGPRGEPRNR
# partner: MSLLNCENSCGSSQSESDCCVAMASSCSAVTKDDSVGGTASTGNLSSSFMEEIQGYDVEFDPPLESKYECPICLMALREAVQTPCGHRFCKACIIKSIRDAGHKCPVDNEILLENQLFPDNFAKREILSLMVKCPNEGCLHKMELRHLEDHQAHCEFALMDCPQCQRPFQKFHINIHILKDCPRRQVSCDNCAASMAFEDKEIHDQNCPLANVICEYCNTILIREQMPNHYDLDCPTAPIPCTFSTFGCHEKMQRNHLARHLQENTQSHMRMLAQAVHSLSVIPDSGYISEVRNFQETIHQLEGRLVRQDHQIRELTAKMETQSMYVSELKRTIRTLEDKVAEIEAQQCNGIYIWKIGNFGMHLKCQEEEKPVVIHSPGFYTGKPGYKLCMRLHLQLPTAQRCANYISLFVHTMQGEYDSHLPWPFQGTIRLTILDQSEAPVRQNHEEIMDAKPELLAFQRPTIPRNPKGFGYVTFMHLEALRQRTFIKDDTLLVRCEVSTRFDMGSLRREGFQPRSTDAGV
# Variants of: B1
# Details: with traf6_human TRAF6, Q9Y4K3
row,Variant,effect of a mutation on the interaction
1,E620A,disrupting interaction strength
